Here are results for 1 molecule from article PMC13588620 (eLife, 2026).

This experiment addresses T1, recombinant SARS-CoV-2 nucleocapsid protein (Severe acute respiratory syndrome …, UniProt P0DTC9).
T1 construct: SARS-CoV-2 nucleocapsid protein; also called NP; N-protein
The experiment is described as follows: ELISA; peptide competition ELISA: plate coated with 0.1 ug/ml recombinant SARS-CoV-2 NP overnight at 4°C; 40 μl mBG17 pre-incubated 1 h at room temperature with 40 μg (approximately 30 nMol) of a single peptide fragment, then applied to the plate in triplicate; HRP goat anti-mouse detection; percent of no-peptide control. To be noted: both partners purified.

B1: mBG17 anti-SARS-CoV-2 nucleocapsid protein mouse monoclonal antibody (recombinant) (antibody, V domains shown)
VH: EVKLEESGGGLVQPGGSMKFSCVASGFTFSDYWMNWVRQSPDKGLEWVAEIRLKSNNYATHYAASVKGRFTISRDDSKSSVYLQMNNLRAEDSGIYYCTRSAMDYWGQGTSVTVSS
VL: DIVMSQSPSSLAVSVGEKITMSCKSSQSLLYTSDQKNYLAWFQQKPGQSPKLLIFWASTRDSGVPDRFTGSGSGTDFTLTISSVKAEDLAVYYCQQFYNYPRTFGGGTKLEI
notes: VH of mBG17; VL of mBG17; also called recombinant mBG17 antibody; source: recombinant antibody produced in 293F cells (as described in Terry et al., 2021)
On to B1, for which the binding result was “binds”.
